Test results: paper PMC8467012, “Targeting ErbB3 Receptor in Cancer with Inhibitory Antibodies from Llama” (Biomedicines, 2021)

What was measured:
[1] = target: T1, extracellular domain of ErbB2 (Homo sapiens (assumed), UniProt P04626); assay: SPR; test of antibody specificity against the extracellular domain of ErbB2 (Figure S5); Biacore T200, CM5 chip, 37 °C; settings: both partners purified
T1 construct: ErbB2 (HER2) receptor, extracellular domain; also called ErbB2 ECD

[2] = target: T2, human ErbB3 extracellular domain (ECD, residues 21-643) (Homo sapiens, UniProt P21860); assay: SPR; ErbB3 ECD immobilised on a CM5 chip by amine coupling; Biacore T200, 37 °C; antibodies in HBS (10 mM HEPES pH 7.4, 150 mM NaCl) with 50 µg/mL BSA; sensograms fitted globally by a 1:1 model at three concentrations near KD; geometric means of two experiments; settings: both partners purified
T2 construct: ErbB3 (HER3) receptor, human, extracellular domain, residues 21-643; secreted with the Igκ leader of the pEE vector; Glycosylated, MW 75 kDa; also called ErbB3 ECD; HER3 extracellular domain; source: CHO-T-HC cells, transiently transfected, secreted, purified (IMAC on HisTrap, SEC on Superdex 200 pg)
T2 sequence (P21860 21-643 R488S): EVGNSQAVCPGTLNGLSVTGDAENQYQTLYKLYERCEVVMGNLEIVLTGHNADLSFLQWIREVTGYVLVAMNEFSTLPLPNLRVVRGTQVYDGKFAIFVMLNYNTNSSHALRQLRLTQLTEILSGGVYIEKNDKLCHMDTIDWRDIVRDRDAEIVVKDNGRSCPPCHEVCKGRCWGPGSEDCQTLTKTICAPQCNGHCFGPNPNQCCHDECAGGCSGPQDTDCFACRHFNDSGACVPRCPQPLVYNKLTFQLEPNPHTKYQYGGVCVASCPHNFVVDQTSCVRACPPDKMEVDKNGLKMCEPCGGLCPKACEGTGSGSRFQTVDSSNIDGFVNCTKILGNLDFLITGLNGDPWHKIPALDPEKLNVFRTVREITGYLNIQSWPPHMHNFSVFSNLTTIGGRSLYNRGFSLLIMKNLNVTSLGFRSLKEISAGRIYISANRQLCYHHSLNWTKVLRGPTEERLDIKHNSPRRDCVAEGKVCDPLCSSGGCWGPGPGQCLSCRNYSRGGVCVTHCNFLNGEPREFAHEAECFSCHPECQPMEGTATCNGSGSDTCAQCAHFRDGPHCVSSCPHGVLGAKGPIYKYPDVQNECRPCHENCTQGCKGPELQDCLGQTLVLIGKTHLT

[3] = target: T2, human ErbB3 extracellular domain (ECD, …); assay: SPR; ErbB3 ECD immobilised on a CM5 chip by amine coupling; Biacore T200, 37 °C; HBS with 50 µg/mL BSA; equilibrium response read 5 s before injection end, fitted by the Hill equation; geometric means of two experiments; settings: both partners purified
[4] = target: T3, human ErbB3 extracellular subdomain 3 (ECD^III, residues 329-532) (Homo sapiens, UniProt P21860); assay: SPR; ErbB3 ECD^III immobilised on a CM5 chip by amine coupling; Biacore T200, 37 °C; HBS with 50 µg/mL BSA; settings: both partners purified
T3 construct: ErbB3 (HER3) receptor, human, extracellular subdomain 3, residues 329-532; secreted with the Igκ leader of the pEE vector; Glycosylated, MW ~25 kDa; also called ErbB3 ECD^III; source: CHO-T-HC cells, transiently transfected, secreted, purified (CaptureSelect C-tag resin)
T3 sequence (P21860 329-532): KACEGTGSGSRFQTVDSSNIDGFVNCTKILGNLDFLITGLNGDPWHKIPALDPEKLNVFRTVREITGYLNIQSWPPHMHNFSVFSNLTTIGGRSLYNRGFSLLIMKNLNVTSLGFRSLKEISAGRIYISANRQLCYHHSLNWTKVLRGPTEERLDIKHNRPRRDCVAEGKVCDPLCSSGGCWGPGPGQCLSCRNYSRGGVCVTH

[5] = target: T4, ErbB3 receptor on cancer cells (Homo sapiens, UniProt P21860); assay: immunostaining of cells or tissue; live cells stained 30 min in PBS with 5 µg/mL directly labelled antibody and Hoechst 33342; confocal microscopy; MCF-7, SK-BR-3, BT-474, Hep G2; K562 as negative control; settings: one partner purified
T4 construct: ErbB3 (HER3) receptor, endogenous on human cancer cell lines; also called HER3; source: endogenous, on live MCF-7, SK-BR-3, BT-474 and Hep G2 cells
T4 sequence (P21860 20-1342): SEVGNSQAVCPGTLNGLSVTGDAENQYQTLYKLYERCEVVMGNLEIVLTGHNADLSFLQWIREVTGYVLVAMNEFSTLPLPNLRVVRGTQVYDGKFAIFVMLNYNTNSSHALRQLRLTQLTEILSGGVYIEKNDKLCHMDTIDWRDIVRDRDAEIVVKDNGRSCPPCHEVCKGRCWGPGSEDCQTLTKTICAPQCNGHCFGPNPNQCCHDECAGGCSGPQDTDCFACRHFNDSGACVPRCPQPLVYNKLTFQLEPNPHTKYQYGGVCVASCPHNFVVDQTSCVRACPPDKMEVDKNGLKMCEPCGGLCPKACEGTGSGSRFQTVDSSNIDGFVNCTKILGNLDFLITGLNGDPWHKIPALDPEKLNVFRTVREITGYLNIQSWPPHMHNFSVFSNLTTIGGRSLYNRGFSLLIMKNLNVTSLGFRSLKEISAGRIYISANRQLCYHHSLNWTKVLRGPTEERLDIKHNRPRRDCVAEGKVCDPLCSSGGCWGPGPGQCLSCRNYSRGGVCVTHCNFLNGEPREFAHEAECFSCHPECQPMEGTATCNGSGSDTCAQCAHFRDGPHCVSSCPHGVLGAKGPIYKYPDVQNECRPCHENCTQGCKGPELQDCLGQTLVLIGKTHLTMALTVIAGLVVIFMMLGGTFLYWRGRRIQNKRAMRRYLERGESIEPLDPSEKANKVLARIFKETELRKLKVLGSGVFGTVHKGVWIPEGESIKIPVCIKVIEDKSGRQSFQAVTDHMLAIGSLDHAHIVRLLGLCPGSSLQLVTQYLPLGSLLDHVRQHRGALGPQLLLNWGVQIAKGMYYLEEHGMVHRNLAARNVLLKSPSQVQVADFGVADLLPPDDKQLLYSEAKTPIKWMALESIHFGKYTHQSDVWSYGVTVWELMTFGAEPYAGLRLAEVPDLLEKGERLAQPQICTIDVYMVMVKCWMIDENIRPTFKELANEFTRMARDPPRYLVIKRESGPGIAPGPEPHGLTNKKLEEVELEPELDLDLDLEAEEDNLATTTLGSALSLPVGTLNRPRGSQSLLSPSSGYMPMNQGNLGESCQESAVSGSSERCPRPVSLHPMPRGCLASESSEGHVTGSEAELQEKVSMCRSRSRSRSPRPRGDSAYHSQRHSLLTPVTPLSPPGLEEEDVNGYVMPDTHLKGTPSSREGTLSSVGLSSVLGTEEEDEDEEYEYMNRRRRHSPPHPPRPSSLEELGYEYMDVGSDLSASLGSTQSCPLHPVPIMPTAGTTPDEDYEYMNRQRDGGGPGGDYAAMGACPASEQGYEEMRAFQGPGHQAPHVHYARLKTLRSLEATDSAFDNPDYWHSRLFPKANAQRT

B1: BCD090-P1 (VHH)
VHH: EVQLVQSGGGLVQPGGSLRLSCAASGRTSSKYAMGWFRQAPGKGTEFVATISWSDGSTYYADSVEGRFTISRDNAKNTVYLQMNSLKPEDTAVYYCAAAVDVLAGTFEYEYDYWGQGTLVTVSS
notes: llama VHH from a phage display library; the product left after TEV cleavage; Monomer by SEC; One disulfide bond Cys22-Cys92; also called anti-ErbB3 single-domain antibody BCD090-P1; source: E. coli SHuffle T7 express or BL21(DE3), cytoplasmic, purified (IMAC, TEV cleavage, negative IMAC, ion exchange); not shown: His tag, N-terminal, cleaved; SUMO, N-terminal, cleaved
binding result [1]: no binding | Kd [2]: 1.6 ± 0.2 nM | koff [2]: 0.003 s⁻¹ | kon [2]: 1.9e+06 M⁻¹ s⁻¹ | Kd [3]: 1.61 ± 0.06 nM | binding result [4]: binds

B2: pelB-BCD090-P1-His5 (VHH)
VHH: EVQLVQSGGGLVQPGGSLRLSCAASGRTSSKYAMGWFRQAPGKGTEFVATISWSDGSTYYADSVEGRFTISRDNAKNTVYLQMNSLKPEDTAVYYCAAAVDVLAGTFEYEYDYWGQGTLVTVSS
notes: as the VHH of m1 (BCD090-P1), with the uncleaved pelB leader and a histidine tag; also called BCD090-P1 purified from the periplasm; periplasmically expressed BCD090-P1; source: E. coli, periplasmic expression (pET22b), purified; not shown: pelB leader (uncleaved), N-terminal, kept; His5, C-terminal, kept
Kd [2]: 5.1 ± 0.9 nM | koff [2]: 0.0044 s⁻¹ | kon [2]: 870000 M⁻¹ s⁻¹ | Kd [3]: 6.5 ± 0.9 nM

B3: BCD090-P1 conjugated with Cy5 or AF488 (VHH)
VHH: EVQLVQSGGGLVQPGGSLRLSCAASGRTSSKYAMGWFRQAPGKGTEFVATISWSDGSTYYADSVEGRFTISRDNAKNTVYLQMNSLKPEDTAVYYCAAAVDVLAGTFEYEYDYWGQGTLVTVSS
notes: as the VHH of m1 (BCD090-P1); also called labeled BCD090-P1; source: E. coli, purified, then labelled with sulfo-Cy5 or AF488 NHS ester
binding result [5]: binds

B4: BCD090-M2 (VHH)
VHH: QVQLVQSGGGLVQAGGSLRLSCAFSGRTFSMYTMGWFRQAPGKEREFVAANRGRGLSPDIADSVNGRFTISRDNAKNTLYLQMDSLKPEDTAVYYCAADLQYGSSWPQRSSAEYDYWGQGTTVTVSS
notes: llama VHH from a phage display library; the product left after TEV cleavage; no PDB id is printed; also called anti-ErbB3 single-domain antibody BCD090-M2; source: E. coli SHuffle T7 express, cytoplasmic, purified (IMAC, TEV cleavage, negative IMAC, ion exchange); not shown: His tag, N-terminal, cleaved; SUMO, N-terminal, cleaved
binding result [1]: no binding | Kd [2]: 16.5 ± 2 nM | koff [2]: 0.0036 s⁻¹ | kon [2]: 220000 M⁻¹ s⁻¹ | Kd [3]: 15 ± 1 nM | binding result [4]: no binding

B5: BCD090-M456 (VHH)
VHH: QVQLVQSGGGLVQSGGSLKLSCVASGGPFSTYLMGWFRQAPGKEREFVTAISRSGLNTYYADSVKGRFTISRDNAKNTVYLQMHSLKPEDTAVYHCAARRGGTNSGSYYFDRPAVSDEYDLWGQGTLVTVSS
notes: llama VHH from a phage display library; the product left after TEV cleavage; Lacks the Cys22-Cys92 disulfide bond (cysteines reduced); CDR H3 of 23 residues; also called anti-ErbB3 single-domain antibody BCD090-M456; source: E. coli SHuffle T7 express or BL21(DE3), cytoplasmic, purified (IMAC, TEV cleavage, negative IMAC, ion exchange); not shown: His tag, N-terminal, cleaved; SUMO, N-terminal, …
Kd [2]: 3100 ± 200 nM | koff [2]: 0.0022 s⁻¹ | kon [2]: 720 M⁻¹ s⁻¹ | Kd [3]: 8600 ± 800 nM | binding result [4]: no binding
